Reference: paper PMC11257959

Test system: NG-RYBP R47A/R53A/R56A (Homo sapiens)
Experiment: EMSA
Details: apparent Kd, n=3; value assigned by fourfold loss; H2A K119 monoubiquitinated histone; DNA unmodified; EMSA: 25 mM Tris-HCl pH 7.5, 50 mM NaCl, 0.05% Tween 20, 5 mM MgCl2, 4% glycerol, 0.2 nM nucleosome, 10 min on ice, 1% agarose 0.4x TBE; cryo-EM binding: 50 mM …

NucH2Aub1 (EMSA, 201 bp 601)
Kd: 10 nM
